Results on three molecules are retold here after patent US20230212319A1, “NOVEL ANTIGEN BINDING DOMAINS AND SYNTHETIC ANTIGEN RECEPTORS INCORPORATING THE SAME” (University of Southern California, priority 2020, published 2023).

The subject of one test is RAJI-CD19-KO cells. Put plainly: JNG assay, co-culture with RAJI-CD19-KO cells. Type of test: cell-based. Particulars: co-culture with Raji-CD19-KO. The procedure:
Cellular supernatant is collected and assayed for the induction of cytokines (e.g., IL2).
JNG (Jurkat cells expressing EGFP under an NFAT promoter) were infected with lentiviral vectors encoding different single chain and multi-chain SARs by spinfection in the presence of 8 µg/ml of Polybrene® (Sigma, Catalog no. H9268). The Jurkat-NFAT-GFP cells are engineered in such a way that the IL-2 promoter, which carries NFAT binding sites, is cloned upstream of the GFP gene. These cells have been used to study signaling via TCR and CAR. The different SARs were stably expressed in Jurkat NFAT-GFP cells by lentiviral mediated gene transfer, followed by selection with puromycin or blasticidin. No drug selection was used in case the construct lacked an antibiotic resistance gene. The SAR-expressing Jurkat-NFAT-GFP cells were cocultured with the target cells at E:T ratio of approximately 1:2 for approximately 4 hours to 18 hours. When the interaction between SIRs and their target antigen results in activation of the NFAT pathway, GFP expression is induced. […] GFP expression was monitored by FACS analysis. The Jurkat-NFAT-GFP (parental) cells were used as control. The structure of different constructs can be determined based on their names. […] The sequence of the other constructs in the table can be similarly determined from their names and by referring to the different Tables of this disclosure that provide the names and SEQ ID NO of the different modules. Alternatively, the composition and modular architecture of the different SAR constructs can be determined from their sequences by bioinformatics tools, including using nucleic acid and amino acids homology searches. A SAR is considered positive in the assay in case the SAR expressing Jurkat-NFAT-GFP cells show greater % GFP positive cells when cultured with the target cell line as compared to parental Jurkat-NFAT-GFP cells. […] In general, the number +/-, +, 2+, 3+, 4+, 5+ refer to approximately 5%, 10%, 20%, 30%, 40% and 50% GFP positive cells. The % of GFP induction in the above assay is dependent not only the relative strength of the SAR but also, among other factors, on the relative level of expression of the SAR in the JNG cells and the relative level of expression of the target antigen in the target cell line. To control for the difference in gene transduction efficiency of the different SAR constructs, the experiment was conducted with JNG cells transduced with SAR constructs co-expressing a drug resistance gene (e.g., puromycin or PAC) followed by drug selection to generate a stable population of SAR-expressing cells. It is to be noted that the drug resistance gene (e.g., PAC) in the SAR constructs is optional and in vivo studies were conducted with SAR constructs lacking the PAC gene.

Another test concerns RAJI cells. Kind of test: JNG assay, co-culture with RAJI cells. Type of test: cell-based. The settings on record: JNG cells expressing construct, co-culture with Raji. The method in brief:
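Jurkat-NFAT-GFP (JNG) cells stably expressing SAR constructs via lentiviral transduction and puromycin/blasticidin selection were cocultured with target cells at E:T ~1:2 for ~4–18 h. NFAT-driven GFP was measured by FACS versus parental JNG cells; scores +/- to 5+ denote ~5–50% GFP-positive cells.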

B1: 22121 (protein)
chain: MALPVTALLLPLALLLHAARPDIQMTQSPSSLSASVGDRVTITCKASDHINNWLAWYQQKPGQAPKLLIYGATTLETGVPSRFSGSGSGTDYTLTISSLQPEDFATYYCQQSWNTPWTFGQGTKLEIKRLEGQPKANPTVTLFPPSSEELQANKATLVCLISDFYPGAVTVAWKADGSPVKAGVETTKPSKQSNNKYAASSYLSLTPEQWKSHRSYSCQVTHEGSTVEKTVAPTECSPIKTDVITMDPKDNCSKDANDTLLLQLTNTSAYYMYLLLLLKSVVYFAIITCCLLRRTAFCCNGEKSRAKRSGSGATNFSLLKQAGDVEENPGPTSATMDWIWRILFLVGAATGAHSGPQVQLQESGGGLAQAGGSLRLSCAASGRTFSMGWFRQAPGKEREFVAAITYSGGSPYYASSVRGRFTISRDNAKNTVYLQMNSLKPEDTAVYYCAANPTYGSDWNAENWGQGTQVTVSSGSGGGGSGGGGSGGGGSFEQVQLQQPGAELVKPGASVKMSCKASGYAFSSYWINWMKQKPGQGLEWIGQIYPGDGDTNYNGKFKGRATLTADTSSSTAYMQLSSLTSEDSAVYFCARSITTVVGCAMDYWGQGTSVTVSSTRASTKGPSVFPLAPSSKSTSGGTAALGCLVKDYFPEPVTVSWNSGALTSGVHTFPAVLQSSGLYSLSSVVTVPSSSLGTQTYICNVNHKPSNTKVDKRVEPKSCEVKTDSTDHVKPKETENTKQPSKSCHKPKAIVHTEKVNMMSLTVLGLRMLFAKTVAVNFLLTAKLFFLRAKRSGSGVKQTLNFDLLKLAGDVESNPGPSRGHMTEYKPTVRLATRDDVPRAVRTLAAAFADYPATRHTVDPDRHIERVTELQELFLTRVGLDIGKVWVADDGAAVAVWTTPESVEAGAVFAEIGPRMAELSGSRLAAQQQMEGLLAPHRPKEPAWFLATVGVSPDHQGKGLGSAVVLPGVEAAERAGVPAFLETSAPRNLPFYERLGFTVTADVEVPEGPRTWCMTRKPGA
In the case of B1, the “NFAT-GFP ASSAY: Raji-CD19-KO” value with RAJI-CD19-KO cells was 4+ (refer to approximately 5%, 10%, 20%, 30%, 40% and 50% GFP positive cells). For the same molecule, the “NFAT-GFP ASSAY: Raji” value in the test with RAJI cells is 5+ (refer to approximately 5%, 10%, 20%, 30%, 40% and 50% GFP positive cells).

B2: 22167 (protein)
chain: MALPVTALLLPLALLLHAARPEVQLQESGGGLVQPGGSLRLSCAASGRTFSSLFMGWVRQAPGKGLELVSAISRYSLYTYYADSVKGRFTISRDNAKNTLYLQMNSLRPEDTAVYYCASKLEYTSNDYDSWGQGTLVTVSSGTGGGGSGGGGSGGGGSEFDIQMTQSPSSLSASVGDRVTITCKASDHINNWLAWYQQKPGQAPKLLIYGATTLETGVPSRFSGSGSGTDYTLTISSLQPEDFATYYCQQSWNTPWTFGQGTKLEIKRLEIQNPDPAVYQLRDSKSSDKSVCLFTDFDSQTNVSQSKDSDVYITDKCVLDMRSMDFKSNSAVAWSNKSDFACANAFNNSIIPEDTFFPSSDVPCDVKLVEKSFETDTNLNFQNLSVIGFRILLLKVAGFNLLMTLRLWSSRAKRSGSGVKQTLNFDLLKLAGDVESNPGPTSATMDWIWRILFLVGAATGAHSGPQVQLQESGGGLAQAGGSLRLSCAASGRTFSMGWFRQAPGKEREFVAAITYSGGSPYYASSVRGRFTISRDNAKNTVYLQMNSLKPEDTAVYYCAANPTYGSDWNAENWGQGTQVTVSSGSGGGGSGGGGSGGGGSFEQVQLQQPGAELVKPGASVKMSCKASGYAFSSYWINWMKQKPGQGLEWIGQIYPGDGDTNYNGKFKGRATLTADTSSSTAYMQLSSLTSEDSAVYFCARSITTVVGCAMDYWGQGTSVTVSSTREDLKNVFPPEVAVFEPSKAEIAHTQKATLVCLATGFYPDHVELSWWVNGKEVHSGVCTDPQPLKEQPALNDSRYCLSSRLRVSATFWQNPRNHFRCQVQFYGLSENDEWTQDRAKPVTQIVSAEAWGRADCGITSASYHQGVLSATILYEILLGKATLYAVLVSALVLMAMVKRKDSRGRAKRSGSGATNFSLLKQAGDVEENPGPSRGHMTEYKPTVRLATRDDVPRAVRTLAAAFADYPATRHTVDPDRHIERVTELQELFLTRVGLDIGKVWVADDGAAVAVWTTPESVEAGAVFAEIGPRMAELSGSRLAAQQQMEGLLAPHRPKEPAWFLATVGVSPDHQGKGLGSAVVLPGVEAAERAGVPAFLETSAPRNLPFYERLGFTVTADVEVPEGPRTWCMTRKPGA
In the case of B2, in the test on RAJI-CD19-KO cells, the “NFAT-GFP ASSAY: Raji-CD19-KO” value is “+ (refer to approximately 5%, 10%, 20%, 30%, 40% and 50% GFP positive cells)”. The “NFAT-GFP ASSAY: Raji” value in the test with RAJI cells is “+ (refer to approximately 5%, 10%, 20%, 30%, 40% and 50% GFP positive cells)”.

B3: 22168 (protein)
chain: MALPVTALLLPLALLLHAARPEVQLVESGGGLVQPGGSLRLSCEASGFASDDYIIGWFRQAPGKEREGVSCISSKYANTVYTDSVKGRFRLSRGTAKNTVYLQMSALKPEDTAVYYCAMDSRRVTCPEISTMHRNFDSWGQGTLVTVSSGTGGGGSGGGGSGGGGSEFDIQMTQSPSSLSASVGDRVTITCKASDHINNWLAWYQQKPGQAPKLLIYGATTLETGVPSRFSGSGSGTDYTLTISSLQPEDFATYYCQQSWNTPWTFGQGTKLEIKRLEIQNPDPAVYQLRDSKSSDKSVCLFTDFDSQTNVSQSKDSDVYITDKCVLDMRSMDFKSNSAVAWSNKSDFACANAFNNSIIPEDTFFPSSDVPCDVKLVEKSFETDTNLNFQNLSVIGFRILLLKVAGFNLLMTLRLWSSRAKRSGSGVKQTLNFDLLKLAGDVESNPGPTSATMDWIWRILFLVGAATGAHSGPQVQLQESGGGLAQAGGSLRLSCAASGRTFSMGWFRQAPGKEREFVAAITYSGGSPYYASSVRGRFTISRDNAKNTVYLQMNSLKPEDTAVYYCAANPTYGSDWNAENWGQGTQVTVSSGSGGGGSGGGGSGGGGSFEQVQLQQPGAELVKPGASVKMSCKASGYAFSSYWINWMKQKPGQGLEWIGQIYPGDGDTNYNGKFKGRATLTADTSSSTAYMQLSSLTSEDSAVYFCARSITTVVGCAMDYWGQGTSVTVSSTREDLKNVFPPEVAVFEPSKAEIAHTQKATLVCLATGFYPDHVELSWWVNGKEVHSGVCTDPQPLKEQPALNDSRYCLSSRLRVSATFWQNPRNHFRCQVQFYGLSENDEWTQDRAKPVTQIVSAEAWGRADCGITSASYHQGVLSATILYEILLGKATLYAVLVSALVLMAMVKRKDSRGRAKRSGSGATNFSLLKQAGDVEENPGPSRGHMTEYKPTVRLATRDDVPRAVRTLAAAFADYPATRHTVDPDRHIERVTELQELFLTRVGLDIGKVWVADDGAAVAVWTTPESVEAGAVFAEIGPRMAELSGSRLAAQQQMEGLLAPHRPKEPAWFLATVGVSPDHQGKGLGSAVVLPGVEAAERAGVPAFLETSAPRNLPFYERLGFTVTADVEVPEGPRTWCMTRKPGA
In the case of B3, the “NFAT-GFP ASSAY: Raji-CD19-KO” value with RAJI-CD19-KO cells was 2+ (refer to approximately 5%, 10%, 20%, 30%, 40% and 50% GFP positive cells). Also, the “NFAT-GFP ASSAY: Raji” value with RAJI cells is 3+ (refer to approximately 5%, 10%, 20%, 30%, 40% and 50% GFP positive cells).
